Patent publication US20030114402A1, “Modulators of DNA cytosine-5 methyltransferase and methods for use thereof” (The Regents of the University of California, priority 1997, published 2003)

Legend:
[1] = target: T1, DCMTase (Mus musculus, UniProt P13864); experiment: Steady-state kinetic assay: initial velocity, substrate inhibition, DNA length; format: biochemical; settings: concentrations up to 30 times Km^AdoMet
T1 construct: DCMTase was purified from mouse erythroleukemia cells as previously described; endogenous in cells; host or cells: mouse erythroleukemia (MEL) cells; enzyme purified from them
Procedure: After preincubation at room temperature for up to 10 minutes, reactions were initiated by the addition of poly(dI.dC:dI.dC) and, if indicated, inhibitor DNA or reaction products. […] Single-stranded DNA was heated to 90° C. and quick cooled on ice, prior to initiation of the reaction. Freeze-thawed DNA produced equivalent results. Incubations were at 37° C. for 60 minutes. The poly(dI.dC:dI.dC) concentrations were 2.0, 4.0, 8.0, 16, 35, 80, 160, 250, 400, 700 and 1000 pM. In some experiments, GC-box a/b was the substrate, using 100 nM DCMTase and DNA concentrations of 0.20, 0.40, 1.0, 2.0, 4.0, 8.0, 15, 23 and 35 μM. […] The radioactivity above the background, determined from assays without added poly(dI.dC:dI.dC), was converted to initial velocities and expressed as picomoles of methyl groups transferred to poly(dI.dC:dI.dC) per hour and plotted in double reciprocal form. […]
The Michaelis-Menton equation was used for studies into DNA length contributions to catalysis using KaliedaGraph 2.1.2 (Synergy Software). […] All steady-state data were analyzed using regression analyses of the appropriate initial velocity equation, listed below, using the Cleland programs (Cleland, W. W., 1979, Statistical analysis of enzyme kinetic data. Methods in Enzymol. 63:103-138). […]

[2] = Jones, 1996; cited from earlier work
[3] = Jones, 1996; cited from earlier work; remark: listed apart in the source
[4] = target: T2, DNA cytosine-5 methyltransferase (DCMTase, Dnmt1) (Mus musculus, UniProt P13864 P13864:1-1620); experiment: EMSA; unit printed as mM (text indicates micromolar); Hepes pH 7.4, 10 mM EDTA, on ice; settings: tags: none; purified from mouse erythroleukemia (MEL) cells; label: 32P (gel shift)
Procedure: (§1) Gel mobility shift assays (GMSA) were performed with minor revisions to the original procedures (Fried, M., & Crothers, D. M., 1981, Equilibria and kinetics of the lac repressor-operator interactions by polyacrylamide gel electrophoresis, Nucleic Acids Res. 9:6505-6525; Garner, M. M. & Revzin, A., 1981, A gel electrophoresis method for quantifying the binding proteins to specific DNA regions: applications to components of the Escherichia coli lactose operon regulatory system, Nucleic Acids Res. 13:3047-3060). […]
(§2) Steady-state kinetic analyses of the DCMTase with the same 30 base-pair DNA substrates used in these studies indicate that Kₘ^DNA is 1000- to 50,000-fold higher (Flynn, J., et al., 1996, Murine DNA cytosine-C5 methyltransferase: Pre-steady- and steady-state kinetic analyses with regulatory DNA sequences, Biochemistry 35:7308-7315) than the DNA concentrations used to generate FIG. 2 and used by Reale et al, 1995, supra. […] Therefore, the stability of protein:DNA was determined by keeping the enzyme at a constant concentration (100 nM) and varying the amount of added DNA (Dubey & Roberts, 1992, supra).

[5] = target: T2, DNA cytosine-5 methyltransferase …; experiment: inhibition; substrate inhibition; KmDNA 0.31 +/- 0.13 µM; settings: tags: none; purified from mouse erythroleukemia (MEL) cells; label: 32P (gel shift)
Procedure: To distinguish between this and alternative explanations, a short 30 base-pair DNA substrate was tested for inhibition at high concentrations. […] Initial velocity data for both substrates were fit to equation 1, which is a standard equation for analyzing substrate inhibition. Kₘ^DNA was determined to be 5.5+/−0.9 pM and 0.31+/−0.13 μM, and Kᵢ^DNA was 1010+/−170 pM and 43+/−22 μM for poly(dI.dC:dI.dC) and GC-box a/b, respectively (Table 3). In both cases, DNA concentrations greater than 20 times Kₘ^DNA caused substrate inhibition. AdoMet utilization was calculated to be less than 0.5%. Product inhibition by S-adenosyl homocysteine formation is therefore unlikely. AdoMet substrate inhibition was not observed at concentrations up to 30 times Kₘ^AdoMet. The substrate inhibition observed implicates a second DNA molecule binding to the enzyme and inhibiting catalysis.

[6] = target: T2, DNA cytosine-5 methyltransferase …; experiment: inhibition; Kii, uncompetitive with poly(dIdC:dIdC); 25 +/- 10 nM competitive with AdoMet; calculated KI 2.5 nM for DCMTase:poly(dIdC:dIdC) complex; Tris pH 8.0, 10 mM EDTA; settings: tags: none; purified from mouse erythroleukemia (MEL) cells
[7] = target: T2, DNA cytosine-5 methyltransferase …; experiment: EMSA; unit printed as mM (text indicates micromolar); free enzyme; settings: tags: none; purified from mouse erythroleukemia (MEL) cells
Procedure: as §1, §2

[8] = target: T2, DNA cytosine-5 methyltransferase …; experiment: EMSA; unit printed as mM (text indicates micromolar); settings: tags: none; purified from mouse erythroleukemia (MEL) cells
Procedure: Gel mobility shift assays (GMSA) were performed with minor revisions to the original procedures (Fried, M., & Crothers, D. M., 1981, Equilibria and kinetics of the lac repressor-operator interactions by polyacrylamide gel electrophoresis, Nucleic Acids Res. 9:6505-6525; Garner, M. M. & Revzin, A., 1981, A gel electrophoresis method for quantifying the binding proteins to specific DNA regions: applications to components of the Escherichia coli lactose operon regulatory system, Nucleic Acids Res. 13:3047-3060). All reactions were done in 100 mM Hepes pH 7.4, 10 mM EDTA, 10 mM DTT, […], 5% glycerol using the indicated P-labeled DNA and DCMTase concentrations, incubated on ice for 5 minutes and loaded on a 1×TBE(89 mM Tris-HCl pH 8.3, 89 mM boric acid, 2 mM EDTA), 6% polyacrylamide gel. Electrophoresis was done at 250 V, 9 mA for 2 hours at 4° C. and the dried gel was exposed to film overnight. The reaction conditions for buffer, temperature, incubation time, cofactor addition and gel composition have all been optimized. Only slightly better complex resolution was obtained under the listed conditions compared to a 10 minute incubation at 37° C. prior to gel loading at room temperature and containing either cofactor S-adenosyl-L-methionine, product S-adenosyl-L-homocysteine, or the AdoMet analog sinefungin. Hepes reaction buffer at pH 7.4 produced sharper banding than Tris-HCl at pH 8.0. […] Subsequent assays used a limiting and constant enzyme concentration with varying DNA concentrations.
as §2

[9] = target: T2, DNA cytosine-5 methyltransferase …; experiment: inhibition; Kis, noncompetitive with poly(dIdC:dIdC); Kii 6800 +/- 1200 nM; Tris pH 8.0, 37 C; settings: tags: none; purified from mouse erythroleukemia (MEL) cells
Procedure: For these reasons it was presumed that single-stranded GC-box substrates could act as dead-end inhibitors of the reaction with poly(dI.dC:dI.dC). Dead-end inhibitors can provide a strong methodology for assessing whether a kinetic mechanism is random or ordered. Inhibition of poly(dI.dC:dI.dC) methylation by single-stranded GC-box b was studied at 15 μM AdoMet. The data were best fit by equation 5, a standard equation for noncompetitive inhibition, and generated the intersecting double reciprocal pattern shown in FIG. 13. The inhibition constants were determined to be Kᵢₛ=3.6+/−1.5 μM and Kᵢᵢ=6.8+/−1.2 μM (Table 4). Kᵢᵢ is the inhibition constant associated with an intercept effect and Kᵢₛ is the inhibition constant associated with a slope effect from families of double reciprocal plots.

T2 sequence (P13864 whole entry, one chain of several): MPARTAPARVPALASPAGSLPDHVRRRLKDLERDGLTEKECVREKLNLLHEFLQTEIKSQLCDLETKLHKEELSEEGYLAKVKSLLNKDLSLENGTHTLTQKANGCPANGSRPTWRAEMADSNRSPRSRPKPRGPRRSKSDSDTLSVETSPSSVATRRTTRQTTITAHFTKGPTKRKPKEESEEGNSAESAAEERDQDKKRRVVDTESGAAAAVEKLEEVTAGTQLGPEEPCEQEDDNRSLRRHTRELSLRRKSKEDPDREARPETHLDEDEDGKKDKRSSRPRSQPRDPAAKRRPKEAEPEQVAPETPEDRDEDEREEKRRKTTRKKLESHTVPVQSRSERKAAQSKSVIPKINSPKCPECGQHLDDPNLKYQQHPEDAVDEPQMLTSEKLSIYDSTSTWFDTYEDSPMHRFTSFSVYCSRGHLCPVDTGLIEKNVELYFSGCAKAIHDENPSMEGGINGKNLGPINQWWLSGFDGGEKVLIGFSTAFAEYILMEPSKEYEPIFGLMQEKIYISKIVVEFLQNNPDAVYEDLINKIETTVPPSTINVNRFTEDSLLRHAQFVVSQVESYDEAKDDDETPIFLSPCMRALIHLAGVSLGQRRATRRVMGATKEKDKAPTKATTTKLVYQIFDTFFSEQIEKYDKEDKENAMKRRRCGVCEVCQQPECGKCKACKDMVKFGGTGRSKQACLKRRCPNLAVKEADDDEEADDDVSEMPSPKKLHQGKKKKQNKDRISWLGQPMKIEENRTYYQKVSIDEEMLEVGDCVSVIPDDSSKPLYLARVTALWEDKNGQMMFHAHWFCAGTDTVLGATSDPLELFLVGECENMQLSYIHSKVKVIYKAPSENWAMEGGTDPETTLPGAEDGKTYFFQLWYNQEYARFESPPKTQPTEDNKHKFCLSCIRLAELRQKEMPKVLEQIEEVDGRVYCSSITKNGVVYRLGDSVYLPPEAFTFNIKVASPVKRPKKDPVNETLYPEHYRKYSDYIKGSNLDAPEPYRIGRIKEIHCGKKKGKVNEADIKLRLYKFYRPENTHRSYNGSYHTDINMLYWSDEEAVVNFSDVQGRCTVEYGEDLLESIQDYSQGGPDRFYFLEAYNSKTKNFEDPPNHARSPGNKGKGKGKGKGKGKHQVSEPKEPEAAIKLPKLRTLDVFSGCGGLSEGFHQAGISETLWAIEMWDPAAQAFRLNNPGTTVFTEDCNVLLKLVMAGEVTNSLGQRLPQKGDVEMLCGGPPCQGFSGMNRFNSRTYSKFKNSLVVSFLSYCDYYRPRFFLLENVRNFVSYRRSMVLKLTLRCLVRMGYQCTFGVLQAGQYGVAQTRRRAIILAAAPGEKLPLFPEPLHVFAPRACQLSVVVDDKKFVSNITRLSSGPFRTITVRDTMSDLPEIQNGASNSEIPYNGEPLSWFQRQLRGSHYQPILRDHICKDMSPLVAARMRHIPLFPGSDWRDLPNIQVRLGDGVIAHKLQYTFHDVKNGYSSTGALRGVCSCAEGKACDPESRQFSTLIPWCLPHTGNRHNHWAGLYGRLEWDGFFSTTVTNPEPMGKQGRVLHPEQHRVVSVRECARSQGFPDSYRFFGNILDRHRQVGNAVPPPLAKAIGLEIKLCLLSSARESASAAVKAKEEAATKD
T1 sequence (P13864 whole entry): as the sequence (P13864 whole entry, one chain of several) above

In the case of `C[S+](CC[C@H](N)C(=O)[O-])C[C@H]1O[C@@H](n2cnc3c(N)ncnc32)[C@H](O)[C@@H]1O` (stereo partly drawn) [AdoMet, S-adenosyl-L-methionine], the AdoMet substrate inhibition [1] is reported as “not observed”.

For `Nc1ncn([C@H]2C[C@H](O)[C@@H](CO)O2)c(=O)n1` [5-Aza-deoxycytidine, 5-aza-2′-deoxycytidine], the stability in solution [2] is listed as “unstable in solution” and the carcinogenicity and mutagenicity [3] is listed as “may be carcinogenic as well as mutagenic”.

B1: GC-box a/b (dsDNA)
DNA 1: GGGAATTCAAGGGGCGGGGCAAGGATCCAG
DNA 2: CTGGATCCTTGCCCCGCCCCTTGAATTCCC
For B1, the Kd [4] was 420 nM and the Ki [5] was 43000 nM.

For CTGGATCCTTGCCCCGCCCCTTGAATTCCC (ssDNA, 5mC at position 15 (central CpG)) [GC-box bMET], the Ki [6] was 20 nM and the Kd [7] was 880 nM.

CTGGATCCTTGCCCCGCCCCTTGAATTCCC (ssDNA) [GC-box b] gave a Kd [8] of 1300 nM and a Ki [9] of 3600 nM.
